Measurements taken from the supplement of paper PMC9170038.

Tested on: MS2 coat protein
Test: apparent KD of MS2 coat protein; higher = weaker reporter binding
Conditions: Eterna round: R107
Method: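 RNA-MaP round R107: designed RNA switches with theophylline, tryptophan, arginine or FMN aptamers are transcribed on-chip within common flanks. They are titrated with SNAP-549-labelled MS2 coat protein in RNA-MaP buffer (100 mM Tris pH 7.5, 80 mM KCl, 4 mM MgCl2), without ligand or with the indicated ligand. Median apparent KD per design.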

[1] = input ligand: theophylline 20 uM
[2] = input ligand: theophylline 2 mM
[3] = input ligand: tryptophan 2.4 mM

Sequence	apparent KD of MS2 coat protein (input ligand: arginine 13.2 mM) [nM]	apparent KD of MS2 coat protein (input ligand: none) [nM]	apparent KD of MS2 coat protein [1] [nM]	apparent KD of MS2 coat protein [2] [nM]	apparent KD of MS2 coat protein [3] [nM]
AGGACAUGAGGAUCACCCAUGUACACUGAAGGAGCGUCGAGAACGACAGGUAGGUCGCAGGCUAAGGAAGGUGAUGCUCAAGAAG [Exclusion Arginine A GF6]	28.2	26.2	40.9	29.8	27.1
AGGCAGUAGGUGAUCCACUGCCAAGGUGAUACCAGCAUCGAAAGAUGCCCUUGGCAGCACCAACAUGAGGAUCACCCAUGUAAUA [(MT)''-(M)'-(T')-(Theo)-(Ms2)_Design1/22_9]	36.9	–	186	–	99.2
AGGUAUGAUCCGGAUACCAGCGAACAUGAGGAUCACCCAUGUGACCUGAGAUAGGCUCUACGCCCUUGGCAGCCGCGAUCGCAGA [Same State Theophylline B GF11]	10.1	11.4	14.2	9.63	12.5
AGGUGACAUGAGGAUCACCCAUGUGGCUUACGAGGACCGGUACGGCCGCCACUCGGUGUGACCUCCGCAUUCACAUAAUAAUCUU [Rilala]	37.4	–	131	126	–
AGUCCUCUGUACCCUGAUGCCCUCACUUUACGAGGACCGGUACGGCCGCCACUCGAAUCCCAACAUGAGGAUCACCCAUGUCGAC [theeternabot_exclusion_MS2_Trp_A_26]	30	–	40	47	–
AGUCUCAGUGGAAGGAGCGUCGCGACUGCUACAUGAGGAUCACCCAUGUCGCCUUGAGCGCGACAGGUAGGUCGCCACGGUAGGC [Erraraorle]	14.1	17.5	29.6	20.8	18.2
AGUGUUAUAACUGAUACCAGACUUUUGCUUAUACAUGAGGAUCACCCAUGUAAAAUGGUUGUCCCUUGGCAGCAGAAAAUACACA [JR_SSTheophyB_Sub007]	81.6	–	104	–	134
AGUGUUAUAACUGAUACCAGACUUUUGCUUAUACAUGAGGAUCACCCAUGUAAAAUGGUUGUCCCUUGGCAGCAGAAGUUACACA [JR_SSTheophyB_Sub008]	104	–	96.1	–	58.6
AGUUACUCGAACAUGGUUGACGAGUGGCAACGAGGACCGGUACGGCCGCCACUCGAAUAAACAUGAGGAUCACCCAUGUACAAAU [T''-M'-T'-T-MS2 - Design 10.b]	61.9	–	148	160	–
AUAACAUGAGGAUCACCCAUGUAAGCAGAUACCAGCUAGGAAACUAGCCCUUGGCAGCUGCAAGGUGAUCCUAGGUAUCUGCAAU [(M1)-(M2)-(T1)-(T2)-(M)'-(T)'_Design6]	30.4	24.7	49.3	52.2	25.9
AUAACAUGAGGAUCACCCAUGUAAGCAGAUACCAGCUAGGAAACUAGCCCUUGGCAGCUGCAAUCCUCAUGUAUUGCAGCUGCAA [(M1)-(M2)-(T1)-(T2)-(M)'-(T)'_Design1]	21.5	–	26.2	–	15.3
AUAACCCUUGACUAAAACACUAAAUCAGUUCGAGGACCGGUACGGCCGCCACUCGUGUCAAGACAUGAGGAUCACCCAUGUACCU [Isbe]	32	–	45.4	44.3	–
AUAAUAAUCAUGGGUGAAGGUCCUCGCAAACGAGGACCGGUACGGCCGCCACUCGAACAUGAGGAUCACCCAUGUGUGAGGACCU [M' - T' - T - MS2 - T'' Design 2]	24.9	–	59.7	74.1	–
AUAAUAUAGACGGCCGCCACUAUAAACAUGAGGAACAUGAGGAUCACCCAUGUAUGAGGAUCACCUAGGACCGGGUCAUAUAUUA [AstrosExyTryB#2]	39.3	–	79.8	62.4	–
